According to patent US20230034906A1 (TRINOMAB BIOTECH, published 2023):

T1: gB_Towne protein with N383 mutated into glutamine (human cytomegalovirus, strain Towne, UniProt F5HB53 25-700)
T1 chain: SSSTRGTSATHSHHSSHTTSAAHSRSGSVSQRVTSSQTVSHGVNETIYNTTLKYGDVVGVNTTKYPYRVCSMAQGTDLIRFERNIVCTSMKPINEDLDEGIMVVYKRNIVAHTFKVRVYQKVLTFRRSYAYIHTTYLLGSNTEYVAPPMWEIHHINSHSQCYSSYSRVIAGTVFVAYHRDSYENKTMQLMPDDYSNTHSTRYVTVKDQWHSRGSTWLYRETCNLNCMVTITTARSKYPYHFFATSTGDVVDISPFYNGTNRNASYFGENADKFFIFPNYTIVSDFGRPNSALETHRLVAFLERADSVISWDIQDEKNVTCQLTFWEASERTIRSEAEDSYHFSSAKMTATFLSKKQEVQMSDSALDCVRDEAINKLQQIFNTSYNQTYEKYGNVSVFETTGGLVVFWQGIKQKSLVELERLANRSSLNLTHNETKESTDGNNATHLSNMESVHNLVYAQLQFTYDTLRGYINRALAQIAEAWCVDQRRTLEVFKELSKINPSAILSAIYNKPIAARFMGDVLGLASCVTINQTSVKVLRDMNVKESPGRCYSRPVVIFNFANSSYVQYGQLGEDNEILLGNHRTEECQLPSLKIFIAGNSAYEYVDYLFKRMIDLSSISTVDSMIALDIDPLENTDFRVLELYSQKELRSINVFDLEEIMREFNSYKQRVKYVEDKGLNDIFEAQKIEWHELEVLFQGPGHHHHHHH

T2: homologous sequence of gB glycoprotein of 56 virus strains (gB_Con. Strain) (human cytomegalovirus (homologous …, UniProt P06473 25-699))
T2 construct: C-terminal tags are part of the entry
T2 chain: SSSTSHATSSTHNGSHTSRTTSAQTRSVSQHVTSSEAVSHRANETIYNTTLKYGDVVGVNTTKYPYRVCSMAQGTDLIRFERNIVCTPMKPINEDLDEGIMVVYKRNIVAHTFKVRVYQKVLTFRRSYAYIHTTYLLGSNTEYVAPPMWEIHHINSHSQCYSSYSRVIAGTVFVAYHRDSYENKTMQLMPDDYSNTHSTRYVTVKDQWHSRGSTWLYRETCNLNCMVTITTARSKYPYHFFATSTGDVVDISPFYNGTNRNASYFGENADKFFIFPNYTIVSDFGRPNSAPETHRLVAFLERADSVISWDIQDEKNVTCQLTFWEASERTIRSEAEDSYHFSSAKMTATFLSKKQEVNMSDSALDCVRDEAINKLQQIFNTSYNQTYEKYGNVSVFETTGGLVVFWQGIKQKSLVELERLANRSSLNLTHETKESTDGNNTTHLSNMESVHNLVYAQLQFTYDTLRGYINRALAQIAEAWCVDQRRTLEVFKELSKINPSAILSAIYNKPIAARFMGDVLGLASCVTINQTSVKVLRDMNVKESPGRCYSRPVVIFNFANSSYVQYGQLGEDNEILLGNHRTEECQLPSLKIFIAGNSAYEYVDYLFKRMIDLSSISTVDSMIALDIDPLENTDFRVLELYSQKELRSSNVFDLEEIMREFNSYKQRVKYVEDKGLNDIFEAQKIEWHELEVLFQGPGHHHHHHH

B1: TRN1017 (antibody, V domains shown)
VH: QVLLVQSGGGLVQPGGSLRLACETSGFTFRHYWMHWVRQAPGKGLVWLSSIHGSGTTTRYADSVKGRFTISRDNAKNILFLQINSPRPEDTATYYCVRDDYTSGYNWGQGAFVTVSS
VL: QSALTQPASVSGSRGQSITIPCTGSRSDVGGYNYVSWYQQRPGKAPKLILYDVSHRPSGISDRFSGSKLGDTASLTISGLRDEDEADYYCSSYTTKSTLYVFGTGTTVSVLG
notes: lambda light chain; expressed in HEK293 cells
B2: TRN1020 (antibody, V domains shown)
VH: EVQLVESGGGLAQPGGSLRLSCEASGFSFSTYAMSWVRQAPGKGLEWVAAVSGRGTSTFYLDSVKGRFTVSRDNSRTTVFLQMNSLKVEDTAFYYCAKDSYVGGSFDWLPRPDYFDHWGRGVLVTVSS
VL: QSVLTQPPSLSATPGQTVTISCSGSNSNIGKNYVSWYQQLPGAAPKLLLYNNNLRPSGIPARFSGSKSGTSATLGITGLQAGDEATYSCATWDKTLNFWVFGGGTKVTVLG
notes: Fully human antibody; lambda light chain
B3: TRN1018 (antibody, V domains shown)
VH: QVQLVQSGGGVVQPGRSLRLSCAASGFTFSNHGIHWVRQAPGKGLEWVAVISSDGTDTRDADSVRGRFTISRDNSRNTVYLDMNSLRAEDTAVYYCARDGRCGDERCYSGLPDVWGRGTRVSVSS
VL: EIVLTQSPATLSLSPGERATLSCRASQSVGGYLAWYQQKVGQAPRLLIYDASNRATGIPARFSGSGSGTDFTLTISSLEPEDFAVYYCQQRSNWPPLTFGGGTKVEIKR
notes: Fully human antibody; kappa light chain

Experiments:
[1] = target: gB glycoprotein of HCMV standard strain Towne, on the virus (human cytomegalovirus, strain Towne, UniProt P13201 23-907); assay: cell-based or functional assay
[2] = target: T1, gB_Towne protein with N383 mutated into …; assay: indirect ELISA, antibody titrated on gB glycoprotein mutant
[3] = target: T3, HCMV gB glycoprotein of standard strain Towne (gB_Towne strain) (human cytomegalovirus, strain Towne, UniProt F5HB53 25-700); assay: SPR (Biacore), antibody captured by anti-human IgG (Fc) on CM5 chip, gB in solution
T3 construct: also called antigen protein gB0049

[4] = target: T2, homologous sequence of gB glycoprotein …; assay: ELISA, HEK293 culture supernatant on gB

gB glycoprotein of HCMV standard strain Towne, on the virus, sequence (P13201 23-907 limits assumed): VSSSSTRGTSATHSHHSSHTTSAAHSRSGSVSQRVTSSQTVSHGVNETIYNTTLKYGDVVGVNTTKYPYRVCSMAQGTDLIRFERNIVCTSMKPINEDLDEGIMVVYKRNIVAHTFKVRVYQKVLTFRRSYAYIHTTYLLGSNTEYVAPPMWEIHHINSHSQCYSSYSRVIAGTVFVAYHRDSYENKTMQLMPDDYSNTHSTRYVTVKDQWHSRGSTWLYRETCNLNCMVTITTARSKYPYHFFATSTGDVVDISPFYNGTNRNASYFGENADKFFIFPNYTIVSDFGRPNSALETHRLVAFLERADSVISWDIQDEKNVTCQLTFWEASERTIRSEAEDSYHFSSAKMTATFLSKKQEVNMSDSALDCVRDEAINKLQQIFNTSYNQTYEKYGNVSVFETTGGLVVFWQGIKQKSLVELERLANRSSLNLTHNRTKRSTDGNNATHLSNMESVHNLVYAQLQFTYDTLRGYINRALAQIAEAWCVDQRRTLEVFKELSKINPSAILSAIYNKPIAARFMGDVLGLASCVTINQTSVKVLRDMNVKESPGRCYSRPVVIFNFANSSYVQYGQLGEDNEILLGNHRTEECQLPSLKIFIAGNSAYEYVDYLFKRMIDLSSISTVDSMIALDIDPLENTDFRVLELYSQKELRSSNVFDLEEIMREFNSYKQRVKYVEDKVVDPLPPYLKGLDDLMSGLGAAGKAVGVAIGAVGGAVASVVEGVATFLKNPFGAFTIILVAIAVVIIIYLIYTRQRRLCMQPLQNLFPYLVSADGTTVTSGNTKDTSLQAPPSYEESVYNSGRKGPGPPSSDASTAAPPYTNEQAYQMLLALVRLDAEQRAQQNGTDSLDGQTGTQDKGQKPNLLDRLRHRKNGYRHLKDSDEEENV

Binder	EC50 of neutralizing Towne virus infection in primary HUVEC cells [1] [mg/L]	binding result [2]	Kd [3] [µM]	binding result [4]
B1	0.089	binds	–	–
B2	0.041	–	0.0006	binds
B3	–	–	0.0279	binds
